Laboratory results as given in article PMC7641127, “MCL1 binds and negatively regulates the transcriptional function of tumor suppressor p73” (Cell Death & Disease, 2020).
No end group written: not given here.

Target: T1, recombinant MCL1 (human, UniProt Q07820 1-350)
T1 construct: MCL1, human; Uniformly 15N-labelled for NMR; also called 15N MCL1; source: E. coli BL21 (DE3), purified (nickel chromatography, gel filtration)
Experiment: fluorescence polarisation; competitive FPA: 50 nM recombinant MCL1, 10 nM F-BAK, titration of unlabeled p73 peptide or p73DBD, 1× PBS pH 7.4
Details: both partners purified

T1 sequence (Q07820 whole entry): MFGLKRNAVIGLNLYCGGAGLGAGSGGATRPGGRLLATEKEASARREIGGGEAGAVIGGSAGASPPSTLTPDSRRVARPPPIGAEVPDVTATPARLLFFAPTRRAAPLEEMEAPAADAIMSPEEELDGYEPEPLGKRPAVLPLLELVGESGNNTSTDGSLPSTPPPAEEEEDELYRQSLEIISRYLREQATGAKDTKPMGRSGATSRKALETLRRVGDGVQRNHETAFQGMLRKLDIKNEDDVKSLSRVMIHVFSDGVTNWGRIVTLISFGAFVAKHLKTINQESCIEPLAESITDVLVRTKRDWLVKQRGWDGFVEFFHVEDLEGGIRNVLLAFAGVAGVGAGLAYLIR

IC50 [µM] | Binder
> 10 | DEDTYYLQVRG-NH2 [p73TD-derived peptide β1]
> 10 | PQPLVDSYRQQQQLLQR [p73TD-derived peptide α2]
